# Laboratory results published in a protein production outcome set (Wang et al. 2014).
# Experiment: label from the status in PepcDB records
row,Sequence,protein production
1,MRKCLLSVAMIVKDEEHNIRRALESIKDVVDEIVVVDTGSTDRTPEIVREYTDKLYFHEWKNDFSEARNFSLKFPTCEWVLILDADEEASEEFRQNIRSFLESLPEDVNTVYLPTVSYLDWDFKRTEIASTPRIFRNGTVYYKNIVHNQAVYKPKVVHAPFVIYHYGYIWTRKLKKNKYERTATLIREQLKTVKNPIEKIYYLIQLYKTEKTGGRKHEENRIAWETLQEIMKVGKIPPIGLEFLYIFGMELILNGFLEKGEELIDTAIRVFPENPDPYFAKLAIYERRKDWENLYQWGKKFLDVLNKALSQAEKYEFTITTIKEIGTAHLLMCHACIKLKKWNEAYEHLLKAIENNIDESKFTLTLQIVSEIDESENFQKVLKLVEKIAEHSENLFFDEIVEKIAEFEIEASEELLNKLPVSRKISKFILKRLVEKKDFLFEYLTGGDINSFVEKTGIPGLLFIFDLLKNRETEGRLIRILSKIEGDEKPNGIVQALIGDLYLKLGNFSEAISRYRKALELAPEIGNFIKPVIEDLKTRLDPDIEGVYEELYRYFSGYREFPFNILEFTKEDAEKLYLISDHPLAIYTSAVAVFPKSKEKARALLERIKDVSKLSFYYYRLAKTWEEENPSKAFELHIKAVEENENLGDIALGRYKYDGLYPNQTFPFMKKEDEIVWAGNITEKFSGLGVIHPVRAWKRKENLYYALPHPTDEALKLYKEREKEILKEPPFKVKEEHMIGVLLESDIRDLRIKGEASGLESILKDLEIELKEDSKNLLVVSGVEETLDLSKIAEDAERVLLFFFVPDLRDRNNSVWYYPAFRVLRTTHQMKKTLEDLRFSVVKVKALDKNLRFIEALRRL,failed
2,MRKDDVVIVTCAITGAIHTPSMSPYLPVTPDQIVEEAVKAAEAGAGMVHIHARDPKDGRPTTDVEVFRYICREIKKQSDVVINVTTGGGGTLGIPVEERAKVVPALKPEIATFNMGSMNFAIHPLLKKYKEFKYDWEPEYLEMTRDIVFRNTFKDLEALSRIFKENDTKPELECYDIGQIYNTAFMFHEGYLEPPLRLQFIHGILGGIGTAVEDVLFMKQTADRLIGRENYTWSLVGAGRFQMPLGTLAVIMGGDVRVGLEDSLYIERGKLAKSNAEQVEKMVRIVKELGKRPATPDEVREILGLKGKERVNF,not failed
3,MRKDTEEVQKSSGKTRKSYVKVKKKRRKSTKQKGPEPKKLDFVKDSWQKGSLEIKKLDFIGDRWQTVSLEPKMLGFVEDPWRKGSLEPKMLDFVEDPWQKGSLEPKMLDIVEDSWQKDSFEAMKLDFAEYNWISIDNRRVSADSKRSSVDSKRSSVDSKRSSVDSKRGSIDSRKFSVDSKRDPVDNKRDSVDSKRFSVDSKRFSVDSRRVSISSKRSSIDSKRSSVDSRKSSGGTLLDFSEDRRSSGEDRDISSLARVRHSRVPWATLMRALGRFKLYLPHIRRYYNLSSRDPLALDKDFLLPREKHLKATVQKSWGNQQPLSKIPYKTLTGHDQTVSSCHFCMDDTRLLSSSYDCTVKLWDAEDGTVICDFEPRPKAPVLECSITADNRRIVASSYDKTVRAWDVETGQLLWKVRHDTFVVCCKFSPNGKYVLSALDVNRGIYLMDPENITSVIHMKAQHQRSITSCCFDPDSQKVASVSMDKSIKIWDVTSRATLFTIQEAHTNAISDCCFTFSGHFLCTSSWDRTIKIWNVHTGEFRNQGACVTLMKGHEGCVSSCCIARDSSFLISGGFDKTVAIWDVGGGYRKLSLKGHEDWVTDVAISNDKKWILSASKDNSMRLWNIEEIDKIPLVSENKRAMGLKVRQCRNCDQLFSVLESDVYSQLSNTCLFCRREKKSLSSSSSSLSLSSLERLCI,failed
4,MRKFTILLLLLWLPSFVSSLTEFDSVMDLRKQLIVLTGWLGFAYMGAAIVLSARFKWTERLVKGLDKAYGLHKKLGISAFIALLLHWLVIKAAHWAVQLGWLVRPTHAGKERVITGVDWISLAEKVGDISFKVFILFTIISLVERISYKKFKGIHKIGGALMLAGVFHTLFLIKWDLSLIPMNIAIILISAISVWCAILSLTGSIGKKNKIGGQVVLVDKFKDDSEFTVVARLQIKLESKLRYKEGQFAYINFHDGEAPHPFSILNYNEKTRLVEFGIKDLGDYTHQLVNQIAVGKKATVEGGYGYFQVPSDMNQVWVGAGIGIVPLLSRLYWLQKSTDKTTKRIEKIHLFYCVNNEKEAFFSTEIKAILRKMDFIELHLIESDKGYRLTSEYILNKIDNESFSVSFCGPEGFGMSLKQGLMANGLPEASFHKEIFKMR,failed
5,MRKHSDCMNFCAVDATKGICRLSKQMINLDDAACPEIKVMPKCKNCKNFVEANDEGIGKCVGLEKEDWVYSTLNAITCEGHVFNE,failed
6,MRKILVVGAGQSGLQLALGLQSHGYEVTLMSNRTADEIRSGRVMSTQCMFDTALGHERDLQLNFWESQAPKIEGLGVSVAAPGSFDPGPSQRAIDWVGKLDGYAQSVDQRVKMAGWMETFAQRGGQLVIHGAAVSDLDYFSRAYDLVLVSAGKGELVSMFGRDASRSPYSEPQRALAVAYVHGLGPRPEHPDYDAVRCNLVPGVGELFVMPTLTTSGRADILFWEGIPGGPLDVFKGVNDPGEHLSLTLELMERFTPWEYARATKVELTDGNGTLAGRYAPTVRNPVGRLPGGGLVLGVADVVVANDPITGQGSNSASKCAAAYLASIVEHGEKEFDETWMRATFDRYWDTAQHVTKWTNAMLGVPPEHVLNLIGAAGALQPVANRFANGFDNPADFENFFYEPEKTEAYLASVAGS,failed
7,MRKKKDGQNLPDFRKNPPKLDKKAYEKELKRLQAELVDLQQWVVETGARVVIVMEGRDAAGKGSAIKRITQYLNPRSARIEALPTPNSREKGQWYFQRYIEKLPTAGEIVIFDRSWYNRAGVERVMGFCTSQEYRRFLHQAPIFERLLVEDGIHLRKYWFSVSDEEQIERFEDRLSDPLRRWKLSPMDLQSITRWEDYSRAKDEMFIHTDIPSAPWYTVESEDKKRSRINVISHLLSTIPYEKIDRPLPEIPHRPDSESDYVRPPRDEFRYVPDVAAHLEEERIKKEEKAKKAKKPAKAAGKNSDKQKSSGGKGKKKSKK,failed
8,MRKKQKLPFDKLAIALMSTSILLNAQSDIKANTVTEDTPAAEQAVETPQPTAVSEEVPSSKETKTPQTPDNAEETVADKANDLALQAPAKTADTPATSKATIRDLNDPSQVKTLQEKAGKGAGTVVAVIDAGFDKNHEAWRLTDKTKARYQSKEDLEKAKKEHGITYGEWVNDKVAYYHDYSKDGKTAVDQEHGTHVSGILSGNAPSETKEPYRLEGAMPEAQLLLMRVEIVNGLADYARNYAQAIRDAVNLGAKVINMSFGNAALAYANLPDETKKAFDYAKSKGVSIVTSAGNDSSFGGKTRLPLADHPDYGVVGTPAAADSTLTVASYSPDKQLTETATVKTADQQDKEMPVLSTNRFEPNKAYDYAYANRGMKEDDFKDVKGKIALIERGDIDFKDKIANAKKAGAVGVLIYDNQDKGFPIELPNVDQMPAAFISRKDGLLLKENPQKTITFNATPKVLPTASGTKLSRFSSWGLTADGNIKPDIAAPGQDILSSVANNKYAKLSGTSMSAPLVAGIMGLLQKQYEIQYPDMTPSERLDLAKKVLMSSATALYDEDEKAYFSPRQQGAGAVDAKKASAATMYVTDKDNTSSKVHLNNVSDKFEVTVTVHNKSDKPQELYYQATVQTDKVDGKHFALAPKALYETSWQKITIPANSSKQVTVPIDASRFSKDLLAQMKNGYFLEGFVRFKQDPKKEELMSIPYIGFRGDFGNLSALEKPIYDSKDGSSYYHEANSDAKDQLDGDGLQFYALKNNFTALTTESNPWTIIKAVKEGVENIEDIESSEITETIFAGTFAKQDDDSHYYIHRHANGKPYAAISPNGDGNRDYVQFQGTFLRNAKNLVAEVLDKEGNVVWTSEVTEQVVKNYNNDLASTLGSTRFEKTRWDGKDKDGKVVANGTYTYRVRYTPISSGAKEQHTDFDVIVDNTTLEVATSATFSTEDRRLTLASKPKTSQPIYRERIAYTYMDEDLPTTEYISPNEDGTFTLPEEAETMEGATVPLKMSDFTYVVEDMAGNITYTPVTKLLEGHSNKPEQDGSDQAPDKKPEAKPEQDGSGQTPDKKPETKPEKDSSGQTPGKTPQKGQPSRTLEKRSSKRALATKASARDQLPTTNDKDTNRLHLLKLVMTTFFFGLVAHIFKTKRQKETKK,failed
9,MRKSVSRASSIITGLLVMSIGLNSTEYLSIYKLILFNKKTCMKLKTHFVFSIGLLTLASSFFGFSLIISAIISVLGNTLIDRLGHKEISTRYGKIPVRTPLTHTLPRSVFWGLISSMPVIIVLGLAYGMLNTKILTALIDGILVGPSHMLLDVFTENGIYVKRNGKWKRVALAHFSYDSSLINGLAIVLGIIMIFAAMELHH,failed
10,MRKTKTEALKTKEHLMLAALETFYRKGIARTSLNEIAQAAGVTRGALYWHFKNKEDLFDALFQRICDDIENCIAQDAEDAEGGSWAVFRHTLLHFFERLQSNDIYYKFHNILFLKCEHTEQNAAVIAIARKHQAIWREKITAVLTEAVENQDLADDLDKETAVIFIKSTLDGLIWRWFSSCERFDLGKTAPRIIGIMMDNLENHPDLRRK,not failed
11,MRKVTAAVMASTLAFSFLSHAAEVVTSDNWHPGDGATQRSAQNHMFDGISLTEHQRQQMRDLMQQARHEQPPVNVSEMETMHRLVTAEKFDESAVRAQAEKMAQEQVARQVEMARVRNQMYRLLTPEQQAVLNEKHQQRMEQLRDVAQWQKSSSLKLLSSSNSRSQLEHHHHHH,failed
12,MRLALFDLDNTLLGGDSDHAWGDYLYQRGILDAATYKSRNDEFYQDYLAGTLNMTDYLNFTLEILGNTDMAQLQEWHREFMRDCIEPIMLPKALELIAKHREAGDKLVVITATNRFVTAPIVARLGIETLLATECEMVDGRYTGRTTGVPCFREGKVTRLNQWLEDNAFSLEDSYFYSDSMNDLPLLEQVANPVAVDPDARLRAEAEQRGWPVITLRS,failed
13,MRLDHLRLQNFRCYEDAHFDFQPGFNLVVGVNGSGKTSLLLGVAECLIPYGNAMGQGQEILSKEDVRFVIDRHEGRSRFERKFPVFIRADGDIFDLPNWRAVRLLEPWEGGVDPSSLSHLSAVLARNNAGEQIDFPVLAFYRANRRWSSARISAEFAAQQRTSRFDGYANWFDAVADLRDFESWLIARTLERLQDRLDSTPTVEREDELEWVNRAIRLAIPDAHDLRYDLRLQSLLVDMGEGNAVPFHELSDGQRSLIALIADIARRMCVLNPHIGKDVLANTGGIVIIDELDIHLHPAWQRNIAPTLKKAFPKVQFIATSHSPQVIGSLQPGEVILLKNGDSSHPRATYGLDSSTILEEVMGVPQREPEIEVLLDELFSTLENNELEKARLQLDALKKKAPDLPEFAGAEALLKRKELIGRLEHHHHHH,not failed
14,MRLEKGMPLKRQIRLKTAIILPFVLTFLFMILAMAAVQTYRYEQTVKELSSKKLSYLTDSISQRLSDFLNRPFFANQMIAYNVGFHHLYQLNDVSRIEDFIRAAANPIGNNIQQIDVVGFGGVNGEYVGLRRDAPEQYSLMLKDARTDDKLVIYQTATKNDQLRTVIDNYDPRVRPWFAPVAQKPSPQWSSVYTNMDEKQEITLSALSPVFQDKRFIGVMVSDVKLNTFNQFLSELKQRMNADVYVMDKQHRLIAHSGEGSVVSWGTPLSPKGERLFASENRNPIIRSSAEQLDLQGLNVGTFTTYVNQQRYFNQASAFTDQYGLTWYISVSIAEGDLLGSLPENQKTSWAIGLLVSLVGLGLGLMALNRVANPIISTASAARQLANGDWTASMPKPGKIYETSLLVQAFIEMTNSLKASFKALRSQLVYDSLTQLLSREGLVEHCHQIPQLNGGLILIGIDKFRDINDSLGHHQADQLLVAIAQRLKVTFPEPALIARIGGDEFAIYLPDVNQQDDLKSVATDILKLFASPFSMPSDNIAVNVSIGIVYLEEPNMTVWLRNGSIALSNAKAEHTHISFYSPEMANASRKRMLMVTQIKLALDNQEFVPFYQPIVDLNSGEVLGAEALARWISPEFGLIPPMDFIPIAEESGLINAIGEQILRQACADTVRGIAENKWPSTFHMHVNLSVNQLSHPDFIAQLHSVLDESGLQPTNLTLEITESRIVDNDPVILHNMLELKKARIHIAIDDFGTGYSSLAYLHKLPFDCLKIDREFVSQLNAYNIENSVVAAIVNMTRGFKVELVAEGIETQEQVDLLNQLGCPRGQGFLFSKPMAYQDWPTDLVNMKQS,failed
